Laboratory results: the DeepSol protein solubility set

Assay: soluble on expression in E. coli; label from the status in PepcDB or PDB records

| Sequence | soluble on expression in E. coli |
| --- | --- |
| GPGSMDRGYPRRREGGASFGGGGFGGVGGFSGGSGGPPAGGPRRRFRSDFDPEEYAPRRKLHGQRPVDFYSPAIRHVLTRLVPRSTPYSYHVAPHEYYTKDLVTASVTNYNASTALCTQWVNTSYHPDSKGGRIRTPLYALQWSPSGRRLLCSTGRGEFLLFNGQSFGVEVKTVAHEDNRPCRAIAWGRRHDLILSGDDAGKLKMWMPNFVFMSEVDTSHRAVREISWAPLELKFCTAGQDGSAKVWDTNTVGAHTATAGASDGNQAVLEEVKLEGHGGDVTTAHWHPYRALIATGSQDTQCRLWDPRTASRGSIAALHGHSQALTCVRWHPDGRTLLSASKDGTVKLWDIRKTQPEVKRFTGHTDAVDKVDWHPTVSDLFASTGADGSVMYWMVAEGDGTMTHGVEEVVHDAAMIEAAHEKFRDKPNPVHCVAWSPLGNILASSGHEVKYWTRNKPGALEEKERGVESDILDEQGHVMV | not soluble |
| MMNKNKKLMVMAGGTGGHVFPGLAVAKQLQQQGWQIRWLGTADRMEAELVPKHGIEIDFIQVKGLRGQGLMRLLKAPFQIVNAILQARRHLLTYQPDAVLGMGGYVSGPGGIAAWLLGIPVVLHEQNAVAGLTNQWLAKIARRVFQAFPGAFADASVVGNPVRQDVVQLAAPEQRFATRNGAIRILVMGGSQGARILNQTLPAVMAALGEGYEIRHQAGKNSQQDVAEAYAAAGVESAQVTEFIDDVADAYAWADLLICRSGALTVSEVSAAGVGAIFIPFMHKDRQQALNADHLVACGAAKMIEQPELSVEKLTQMVRELDRAQLLSMAQKARQAAKLDADKVVAQAIIAITE | not soluble |
| RIVLQTSAHTLGDVVVTGYQTLERRKLTAAISKVEVSDAMVGAAKSIDQALTGQIAGVSVTNTSGAPGSPAKIRIRGTASMNGTQDPLWVLDGIPLEGTDIPKMDNKSSDNDIVNIGQSSIAGLSPNDIESITILKDAAATAIYGARAANGVIVVTTKRGKTGK | not soluble |
| HHHHHHTNEAYLAHERRELEAKRNQLRDEVDRTKTHMQDEAANDPNWFDITAQLWEFSQELRNRDREEKLIKKIEQTLKKVENED | soluble |
| MKVEQIYTGCLAQGAYYITSMGEAAIIDPLREITPYLERLKRDGVKLKYILETHFHADFVSGHLDLSRATGAPIVYGPTAKPGFDAIVAEDNQIFELGNVKIRVLHTPGHTMESSCFLLIDENGREAALFSGDTLFLGDVGRPDLAQKAANLTQEELAGLLYDSLYTKILPLSDDIIVYPAHGAGSACGKNMMQETVDSLGNQKRVNYALNQPGKEAFIASVIEGLLPPPAYFGGNVAMNKMGYDSIDNVMERGLSALSATDFEAIAKTSDALVLDTRAPGVFAQGFIPRSINIGLDGDFAPWVGTMIVDVKQPLLLVADPGREQEVITRLSRVGFDQVLGYLDGGFDTWNASGKEIDHVECITANEFAERFCPEESLVFDVRKESEYAAEHVEGAYSRPLAYINDWIQDIPRDRHFYLHCIGGYRSMIASSILLSRGYRNFTDIEGGFASIAQTGVPKTDYVCQSKVSKKLEHHHHHH | soluble |
| MIRNPKIYIIILNYNAYEDTLECVKSIGNIDYDNYELVLVDNSSTDDSYVKLKESLPSYNIIKSKENLGYANGNNIGIKYALENGADYICILNNDVVVEKDFLNKLVDKIIEKEDVGIVGSCICDYYRREIIQGMGAHINLYFAAARRYFKGKNYNEIEKKDIFVDYLEGACFLVKSEVFEKIGLIPENYFLFFEETEFCTRAINAGYKIMCIYESKVYHKGSATINKFGSLSYAYLNRNRVIFVRRNSKWYQKIIFAIYIFIEAFGRIVIRKEPLTLFKYILGGFKSNKESIDVIDVKSYVKLEHHHHHH | not soluble |
| MSELLAGTKLINQDSEELDAGEHLKGKVVGLYFSASWCPPCRQFTPKLTRFFDEIRKKHPEFEVVFVSRDREDGDLREYFLEHMGAWTAIPFGTPRIQELLEQYEVKTIPSMRIVKPNGDVVVQDARTEIQDKGNDPEALWEEWLAFYD | not soluble |
| MGSSHHHHHHGKTIFVIVPTNEEQVAFLEALAKQDELNFDWQNPPTEPGQPVVILIPSDMVEWFLEMLKAKGIPFTVYVEEGGSENLYFQGGGGGGGSEVEASPRVAMIVLEGFSGTVFHALMESGVHMPNIAHMLSSQKGVWAECATSSQSSCARAVVVENDTSGEVYVSAAAAMTSLFSGVSPREHQVYNGSLESMSMYANTSKMNPSIAKRVKDAGMKVSVVGTSHAINSLSIALGSCSRPGVLDMECAASREELLRASVDEYSGSVQLDCLASSSCNMDTRKMTSPTDPQQCSSGQAEAQFTRHLNSIFGGLAYSTQTQEAAMQNTVADNLDNSLFVFHFDALAVRAASTYLPDFQYNASSKEYVAQVYLLDALVGQVISYVRDRARSQKENWLIVGVSNHGGDDKPYAIPNPVSTSENTIAFFMATYTNNMKRFVTLAPLQRPVTQLDVLPTVLTWLNVVPFDAETSAVTAGTNTTAASPAVEARVMERRHFEGLVQGICSSGASLKNCAL | not soluble |
| MGSDKIHHHHHHMRAEIRNLNVKGGHYYLELAEKDADTDKVIASCKATIWKFSASKIVLKFERETGIELASDLNVLIKIRARFDPQYGFSVNIEEIDSSFTLGEIAKRYQQIVERLTQEGLIHKNKLLPTPFDIQNVLVIAPQNAAGLGDFKKDADALERNGVCHFVYQSATFQGNTAAVSLMESLATGLKQWANNFNFPPDLIVIIRGGGAVNDLAYLNDYELAALLCKRSVPIWVGIGHEKDRTILDEIAHRSFDTPSKVIAGIRNHIVERVQEAVDNLQTIKLLSQHQITTYQSKSDQYLQHIKSSAQAQLNSAHQFLEQIKERIQFVSQQQVKFSLSQTESLMREILLQNPKQIQAKGYAIVRSEGKAIRSIHQITNSTITVDMQDGAINANITEVIPNE | not soluble |
| MQRKLATWAATDPSLRIQRLLRLITQPEWLAEAARITLSSKGAHTPGVDGVNKTMLQARLAVELQILRDELLSGHYQPLPARRVYIPKSNGKLRPLGIPALRDRIVQRAMLMAMEPIWESDFHTLSYGFRPERSVHHAIRTVKLQLTDCGETRGRWVIEGDLSSYFDTVHHRLLMKAVRRRISDARFMTLLWKTIKAGHIDVGLFRAASEGVPQGGVISPLLSNIMLNEFDQYLHERYLSGKARKDRWYWNNSIQRGRSTAVRENWQWKPAVAYCRYADDFVLIVKGTKAQVEAIREECRGVLEGSLKLRLNMDKTKIPHVNDGFIFLGHRLIRKRSRYGEMRVVSTIPQEKARNFAASLTALLWKVRISGEILLGLEHHHHHH | not soluble |
| MSLESLFQHIIFTEHQAEESRRLMREVRSEITRCREKIKKATEELNEEKIKLESKVQQFFEKSFFLQLLKAHENALEKQYSEITNHRNMLLQTFEAIKKQMIEEEDKFIKEITDFNNDYEITKKRELLMKENVKIEISDLENQANMLKSEMKSMEHDSSQLNELQKQKSELIQELFTLQRKLKVFEDEENESICTTKYLEAEKIKISEKPQNDTECLRLKKELELYKEDDMESVYEALQTEIEFLELTLAQKDLQESK | not soluble |
| MAVGLGPLPALHPVPGFELGISSAGIKRPGRKDVVVMRCAEGSSVAGVFTLNAFCAAPVILAKQRVQGTVRYLLTNTGNANAGTGEPGLVAARRTCEALAQLTGVDASAVLPYSTGVIGEPLPVEKIEGALQAALDDLSVDNWAAAATGIMTTDTLPKGASRQFTHDGVTITVTGISKGAGMIRPNMATMLGYIATDAKVSQSVLQDLIRDGANKSFNRLTIDGDTSTNDCCMLIATGQADLPEITEAKGLLFEALKKAVFDVCMEVAQAIVRDGEGATKFVTVEVNGGGNHQECLDVGYAVAHSPLIKTALFASDPNWGRILAAVGRAGVPDLDVSKIDVFLGGVCIASQGCRATTYTEEQGSAVMAEAEITIRIELGRGDCSETIWTTDLSHEYVKINAEYRTLEHHHHHH | not soluble |
| MKIGVVGLGLIGASLAGDLRRRGHYLIGVSRQQSTCEKAVERQLVDEAGQDLSLLQTAKIIFLCTPIQLILPTLEKLIPHLSPTAIVTDVASVKTAIAEPASQLWSGFIGGHPMAGTAAQGIDGAEENLFVNAPYVLTPTEYTDPEQLACLRSVLEPLGVKIYLCTPADHDQAVAWISHLPVMVSAALIQACAGEKDGDILKLAQNLASSGFRDTSRVGGGNPELGTMMATYNQRALLKSLQDYRQHLDQLITLISNQQWPELHRLLQQTNGDRDKYVE | soluble |
| MTDGTPTTLTDRIEAALRDVRDPNADLSVFDAGFVENIDAADGEVTIEADLTALDGQTSTQVVQAMLHAVDDVDGVDSVHVERTTPTGEGNAGVESFDRVVAVASAKGGVGKSTVATHLACALAADNDVALFDADIHGPNVPELLDVSGPVHSSEEGDPLPVRAGDMDVMSVGLMESGAPLAWRGAMAHDALNDLFENTAWRNDDVLVLDLPPGTGDVVLTTLQEVPVDGVVVVTTPFHASVSDTSRTVELFRDNDVPVLGTVVNMAEYVCDCCGEPNDLFTGDALGDLDAEVLAELPFSHDLQGTPAPGSVPDAVSSLGDAVESALDTAGEVGVDPTADIRDLQPQERKDRVRERFTALDSGEPFVLVSDRDPTPVGQFLGRLAEAPREAFDPFEVRRETPEAWVLETAKPLEHHHHHH | soluble |
| MDYQQDEYDEPFRIHLNLDNLTEDEAKARFSLIYDQHAQTMKRRETNDYLRPICIDGTDVSNKLNHIIRKNMDLFPVDKSIFNMRAITMALWYFISRGHAAVVFLPTNLRDFAQKCSDPHELSLLAKLELIVFDESTALNPSSAVLLSKTVATWAQNNDGCIVGSRKKYGLLGQRYSELIDRVTNTLISPAFTPDNELEICDLVRLVLAADEVRRNDENSNCMGYQLLASDQVVIMSKLAKMIGKDSMIDLCNRARELNTSTNPNYRNIFNNQKQSTSMGRVYQSPYHFNDPFLPDYVAPPPPIALESVAKPTRIGHRHSIYRVGEDKSTELENGDNRRKAVYRGALIDALQPMFGLEKATALVNGNPDQNEINDLIELGINQ | not soluble |
| QVQLLESGAELVKPGASVKLSCKASGYTFTSYWMHWVKQRPGRGLEWIGRIDPNSGGTKYNEKFKSKATLTVDKPSSTAYMQLSSLTSEDSAVYYCTRRDSDYWGAGTTVTVSSASTKGPSVFPLAPSSKSTSGGTAALGCLVKDYFPEPVTVSWNSGALTSGVHTFPAVLQSSGLYSLSSVVTVPSSSLGTQTYICNVNHKPSNTKVDKKVEPKSCDKT | soluble |
| MTEKKERIDVHAYLAEFDDIPGTRVFTAQRARKGYNLNQFAMSLMKAENRERFKADESAYLDEWNLTPAAKAAVLARDYNAMIDEGGNVYFLSKLFSTDGKSFQFAAGSMTGMTQEEYAQMMIDGGRSPAGVRSIKGGY | soluble |
| MRLRHLSDPDSLPALDKSFAIERPALGLAPDAPPVRILLLYGSLRARSFSRLAVEEAARLLQFFGAETRIFDPSDLPLPDQVQSDDHPAVKELRALSEWSEGQVWCSPERHGQITSVMKAQIDHLPLEMAGIRPTQGRTLAVMQVSGGSQSFNAVNTLRLLGRWMRMFTIPNQSSIAKAFQEFDAAGRMKPSPYYDRIADVMEELVRFTALVRPHREALTDRYSERKAAGHVIDEATDLSSIAIAPQPLPESETS | soluble |
| MYSIKMRSSNQDVHISGAETICEFDKIEQTVQRFYNKGFFHENGQPDFLNIKIQKIMEPIQQIKALQIIEDDKANLQHLTQECGVTEQALNQGMTYIKNETVYTGAIILSAISGKRLDSFGQRGIRATHFSFEDINNKGDLNERVTDALAIASCINAHPYVKGELCVSDDLTYTTGYFAAAKIGYHRLFDIKPVNTRYGGRIIFVDDCIDLNHYISFLESTPKQVVYETV | not soluble |
| MASQAASKAVTFAYNGTIASTLRKFAWSNLWGGREYGLQFHDTYFEPAPEVTEALRRLNLQEPHVFDQRKIRLSRAHTLALHGEKLPKAEWTQWDQESWYLKPYLDEIEAEKKARAETSGLIPPYQMKQH | not soluble |
